For test [1], the target named is recombinant bank vole (BV) PrP(90–231), I109 natural polymorph (bank vole) (UniProt Q8VHV5). Nature of the test: SEC. (In general: SEC sorts molecules by how far they enter the pores of the column.)
Test [2] has the same target. The test is described as follows: NMR diffusion.

In general, stoichiometry N refers to a count of units in the complex or per binding partner.

Regarding “recombinant bank vole (BV) PrP(90–231), I109 natural polymorph (from UniProt Q8VHV5 90-231) (domain or fragment)”, the stoichiometry N in test [1] was determined as 12; in test [2], 16.

These data come from paper doi:10.1101/2025.10.11.681810.
